For one substance, half maximal effective concentration (EC50) of p-STAT4 (Tyr693) in activated human T cells, AlphaLISA results are on record in patent US20230295258A1.

For the assay, the target named is IL-12 receptor of human T cells (human) (UniProt P42701). The assay can be described thus: cell-based or functional assay.
Chain of IL-12 receptor of human T cells (human) (Q99665 24-862, chain 2 of 2, other chains not shown): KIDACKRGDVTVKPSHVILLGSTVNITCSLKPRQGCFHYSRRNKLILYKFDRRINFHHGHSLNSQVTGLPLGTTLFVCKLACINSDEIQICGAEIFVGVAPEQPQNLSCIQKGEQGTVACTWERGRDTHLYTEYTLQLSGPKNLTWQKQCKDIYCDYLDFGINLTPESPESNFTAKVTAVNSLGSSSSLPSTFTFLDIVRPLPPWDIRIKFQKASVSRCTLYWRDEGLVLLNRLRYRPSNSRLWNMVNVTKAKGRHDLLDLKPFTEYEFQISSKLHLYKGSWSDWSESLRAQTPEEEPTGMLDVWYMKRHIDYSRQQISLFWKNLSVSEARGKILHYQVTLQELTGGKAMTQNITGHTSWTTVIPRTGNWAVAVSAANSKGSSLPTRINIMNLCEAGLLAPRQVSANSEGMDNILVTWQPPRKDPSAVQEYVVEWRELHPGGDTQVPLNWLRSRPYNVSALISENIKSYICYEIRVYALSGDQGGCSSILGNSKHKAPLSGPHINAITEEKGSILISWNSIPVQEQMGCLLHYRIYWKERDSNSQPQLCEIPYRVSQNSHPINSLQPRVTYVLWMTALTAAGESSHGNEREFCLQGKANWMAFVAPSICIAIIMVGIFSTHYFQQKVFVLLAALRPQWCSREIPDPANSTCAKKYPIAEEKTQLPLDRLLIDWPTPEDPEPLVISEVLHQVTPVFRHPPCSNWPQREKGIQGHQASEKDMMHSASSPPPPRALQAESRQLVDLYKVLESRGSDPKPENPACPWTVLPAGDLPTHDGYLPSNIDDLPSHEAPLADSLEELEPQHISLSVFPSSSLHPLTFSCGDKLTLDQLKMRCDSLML

As to “recombinant human IL-12 (from UniProt P29459 23-219; P29460 23-328) (ligand)”, the half maximal effective concentration (EC50) of p-STAT4 (Tyr693) in activated human T cells, AlphaLISA came out at 8.95 pM.
